Laboratory results reported in patent US11278600B2, “Human alpha-galactosidase variants” (Codexis, Inc., priority 2014, dated 2022).

Assays:
Assay type in all cases: biochemical
[1] = HTP-analysis of yeast culture supernatants, no challenge (MUGal hydrolysis); details: activity of the variant/activity of WT GLA (SEQ ID NO: 5), yeast supernatant
Method: (§1) Yeast (INVSc1) cells transformed with vectors expressing GLA and GLA variants using the lithium acetate method were selected on SD-Ura agar plates. After 72 h incubation at 30° C. colonies were placed into the wells of Axygen® 1.1 ml 96-well deep well plates filled with 200 μl/well SD-Ura broth (2 g/L SD-Ura, 6.8 g/L yeast nitrogen base without amino acids [Sigma Aldrich]), 3.06 g/L sodium dihydrogen phosphate, 0.804 g/L disodium hydrogen phosphate, pH 6.0 supplemented with 6% glucose. The cells were allowed to grow for 20-24 hours in a Kuhner shaker (250 rpm, 30° C., and 85% relative humidity). Overnight culture samples (20 μL) were transferred into Corning Costar® 96-well deep plates filled with 380 µL of SD-ura broth supplemented with 2% glucose. The plates were incubated for 66-84 h in a Kuhner shaker (250 rpm, 30° C., and 85% relative humidity). The cells were then pelleted (4000 rpm×20 min), and the supernatants isolated and stored at 4° C. prior to analysis.
GLA variant activity was determined by measuring the hydrolysis of 4-methylumbelliferyl α-D-galactopyranoside (MUGal). For this assay, 5-50 μL, of yeast culture supernatant produced as described above, was mixed with 0-45 μL, of McIlvaine Buffer (McIlvaine, J. Biol. Chem., 49:183-186 [1921]), pH 4.8 and 50 μL of 2 mM MUGal in 50 mM citrate, 200 mM KCl, pH 4.6 in a 96-well, black, opaque bottom plate. The reactions were mixed briefly and incubated at 37° C. for 30-180 minutes, prior to quenching with 100 μL, of 1 M sodium carbonate. Hydrolysis was analyzed using a SpectraMax® M2 microplate reader monitoring fluorescence (Ex. 355 nm, Em. 448 nm).

[2] = HTP-analysis of supernatants pretreated with base (MUGal hydrolysis); details: challenge at pH 7.0; activity of the variant/activity of WT GLA (SEQ ID NO: 5); yeast supernatant
Method: as §1
GLA variants were challenged with basic (neutral) buffer to simulate the pHs that the variants encounter in the blood following their administration to a patient. First, 50 μL of yeast culture supernatant and 50 uL of McIlvaine buffer (pH 7.0-8.2) or 200 mM sodium bicarbonate (pH 9.1-9.7) were added to the wells of a 96-well round bottom plate. The plates were sealed and incubated at 37° C. for 1-18 h. For the assay, 10-50 μL of basic-pH-challenged sample was mixed with 0-40 μL, of McIlvaine buffer pH 4.8, 25 μL, of 1 M citrate buffer pH 4.3 and 25 μL, of 4 mM MUGal in McIlvaine buffer pH 4.8. The reactions were mixed briefly and incubated at 37° C. for 30-180 minutes, prior to quenching with 100 μL, of 1 M sodium carbonate. Hydrolysis was analyzed using a SpectraMax® M2 microplate reader monitoring fluorescence (Ex. 355 nm, Em. 448 nm).

[3] = HTP-analysis of supernatants pretreated with acid (MUGal hydrolysis); details: challenge at pH 4.3; activity of the variant/activity of WT GLA (SEQ ID NO: 5); yeast supernatant
Method: as §1
GLA variants were challenged with acidic buffer to simulate the extreme pHs that the variants may encounter in lysosomes. First, 50 μL of yeast culture supernatant and 50 uL of McIlvaine buffer (pH 3.3-4.3) were added to the wells of a 96-well round bottom plate. The plates were sealed with a PlateLoc Thermal Microplate Sealer (Agilent) and incubated at 37° C. for 1-3 h. For the assay, 10-50 uL of acid-pH-challenged sample was mixed with 0-40 μL, of McIlvaine buffer pH 4.8, 25 μL, of 1 M citrate buffer pH 4.3 and 25 μL, of 4 mM MUGal in McIlvaine buffer pH 4.8. The reactions were mixed briefly and incubated at 37° C. for 30-180 minutes, prior to quenching with 100 μL, of 1 M sodium carbonate. Hydrolysis was analyzed using a SpectraMax® M2 microplate reader monitoring fluorescence (Ex. 355 nm, Em. 448 nm).

| Molecule | Relative Activity of GLA Variants After No Challenge (NC) [1] | Relative Activity of GLA Variants After Challenge at pH 7.0 [2] | Relative Activity of GLA Variants After Challenge at pH 4.3 [3] |
| --- | --- | --- | --- |
| 9 (protein, Synthetic Polypeptide sequence of Variant No. 9 of mature Human GLA) LDNGLARTPTMGWLHWERFMCNLDCQEEPDSCISEKLFMEMADLMVSDGWKDAGYEYLCIDDCWMAPQRDSEGRLQADPQRFPHGIRQLANYVHSKGLKLGIYADVGNKTCAGFPGSFGYYDIDAQTFADWGVDLLKFDGCYCDSLENLADGYKHMSLALNRTGRSIVYSCEWPLYMWPFQKPNYTEIRQYCNHWRNFADIDDSWKSIKSILDWTSFNQERIVDVAGPGGWNDPDMLVIGNFGLSWNQQVTQMALWAIMAAPLFMSNDLRHISPQAKALLQDKDVIAINQDPLGKQGYQLRKGDNFEVWERPLSGLAWAVAMINRQEIGGPRSYTIAVASLGKGVACNPACFITQLLPVKRKLGFYEWTSRLKSHVNPTGTVLLQLENTMQMSLKDLL | + (+ = 0.5 to 1.5 relative activity over WT GLA (SEQ ID NO: 5)) | + (+ = 0.5 to 1.5 relative activity over WT GLA (SEQ ID NO: 5)) | +++ (+++ = >2.5 relative activity over WT GLA (SEQ ID NO: 5)) |
| 10 (protein, Synthetic Polypeptide sequence of Variant No. 10 of mature Human GLA) LDNGLARTPTMGWLHWERFMCNLDCQEEPDSCISEKLFMEMADLMVSEGWKDAGYEYLCIDDCWMAPQRDSEGRLQADPQRFPHGIRQLANYVHSKGLKLGIYADVGNKTCAGFPGSFGYYDIDAQTFADWGVDLLKFDGCYCDSLENLADGYKHMSLALNRTGRSIVYSCEWPLYMWPFQKPNYTEIRQYCNHWRNFADIDDSWKSVKSILDWTSFNQERIVDVAGPGGWNDPDMLVIGNFGLSWDQQVTQMALWAIMAAPLFMSNDLRHISPQAKALLQDKDVIAINQDPLGKQGYQLRQGDNFEVWERPLSGLAWAVAMINRQEIGGPRSYTIAVASLGKGVACNPACFITQLLPVKRKLGFYEWTSRLRSHINPTGTVLLQLENTMQMSLKDLL | ++ (++ = >1.5 to 2.5 relative activity over WT GLA (SEQ ID NO: 5)) | ++ (++ = >1.5 to 2.5 relative activity over WT GLA (SEQ ID NO: 5)) | +++ (+++ = >2.5 relative activity over WT GLA (SEQ ID NO: 5)) |
| 11 (protein, Synthetic Polypeptide sequence of Variant No. 11 of mature Human GLA) LDNGLARTPTMGWLHWERFMCNLDCQEEPDSCISEKLFMEMADLMVSEGWKDAGYEYLCIDDCWMAPQRDSEGRLQADPQRFPHGIRQLANYVHSKGLKLGIYADVGNKTCAGFPGSFGYYDIDAQTFADWGVDLLKFDGCYCDSLENLADGYKHMSLALNRTGRSIVYSCEWPLYMWPFQKPNYTEIRQYCNHWRNFADIDDSWKSVKSILDWTSFNQERIVDVAGPGGWNDPDMLVIGNFGLSWDQQVTQMALWAIMAAPLFMSNDLRHISPQAKALLQDKDVIAINQDPLGKQGYRLRQGDNFEVWERPLSGLAWAVAMINRQEIGGPRSYTIAVASLGKGVACNPACFITQLLPVKRKLGFYEWTSRLKSHVNPTGTVLLQLENTMQMSLKDLL | + (+ = 0.5 to 1.5 relative activity over WT GLA (SEQ ID NO: 5)) | ++ (++ = >1.5 to 2.5 relative activity over WT GLA (SEQ ID NO: 5)) | +++ (+++ = >2.5 relative activity over WT GLA (SEQ ID NO: 5)) |
| 12 (protein, Synthetic Polypeptide sequence of Variant No. 12 of mature Human GLA) LDNGLARTPTMGWLHWERFMCNLDCQEEPDSCISEKLFMEMADLMVSEGWKDAGYEYLCIDDCWMAPQRDSEGRLQADPQRFPHGIRQLANYVHSKGLKLGIYADVGNKTCAGFPGSFGYYDIDAQTFADWGVDLLKFDGCYCDSLENLADGYKHMSLALNRTGRSIVYSCEWPLYMWPFQKPNYTEIRQYCNHWRNFADIDDSWKSVKSILDWTSFNQERIVDVAGPGGWNDPDMLVIGNFGLSWNQQVTQMALWAIMAAPLFMSNDLRHISPQAKALLQDKDVIAINQDPLGKQGYRLRQGDNFEVWERPLSGLAWAVAMINRQEIGGPRSYTIAVASLGKGVACNPACFITQLLPVKRKLGFYEWTSRLKSHVNPTGTVLLQLENTMQMSLKDLL | + (+ = 0.5 to 1.5 relative activity over WT GLA (SEQ ID NO: 5)) | + (+ = 0.5 to 1.5 relative activity over WT GLA (SEQ ID NO: 5)) | ++ (++ = >1.5 to 2.5 relative activity over WT GLA (SEQ ID NO: 5)) |
| 13 (protein, Synthetic Polypeptide sequence of Variant No. 13 of mature Human GLA) LDNGLARTPTMGWLHWERFMCNLDCQEEPDSCISEKLFMEMADLMVSEGWKDAGYEYLCIDDCWMAPQRDSEGRLQADPQRFPHGIRQLANYVHSKGLKLGIYADVGNKTCAGFPGSFGYYDIDAQTFADWGVDLLKFDGCYCDSLENLADGYKHMSLALNRTGRSIVYSCEWPLYMWPFQKPNYTEIRQYCNHWRNFADIDDSWKSIKSILDWTSFNQERIVDVAGPGGWNDPDMLVIGNFGLSWDQQVTQMALWAIMAAPLFMSNDLRHISPQAKALLQDKDVIAINQDPLGKQGYQLRQGDNFEVWERPLSGLAWAVAMINRQEIGGPRSYTIAVASLGKGVACNPACFITQLLPVKRKLGFYEWTSRLKSHVNPTGTVLLQLENTMQMSLKDLL | ++ (++ = >1.5 to 2.5 relative activity over WT GLA (SEQ ID NO: 5)) | ++ (++ = >1.5 to 2.5 relative activity over WT GLA (SEQ ID NO: 5)) | +++ (+++ = >2.5 relative activity over WT GLA (SEQ ID NO: 5)) |
| 14 (protein, Synthetic Polypeptide sequence of Variant No. 14 of mature Human GLA) LDNGLARTPTMGWLHWERFMCNLDCQEEPDSCISEKLFMEMADLMVSEGWKDAGYEYLCIDDCWMAPQRDSEGRLQADPQRFPHGIRQLANYVHSKGLKLGIYADVGNKTCAGFPGSFGYYDIDAQTFADWGVDLLKFDGCYCDSLENLADGYKHMSLALNRTGRSIVYSCEWPLYMWPFQKPNYTEIRQYCNHWRNFADIDDSWKSIKSILDWTSFNQERIVDVAGPGGWNDPDMLVIGNFGLSWNQQVTQMALWAIMAAPLFMSNDLRHISPQAKALLQDKDVIAINQDPLGKQGYQLRQGDNFEVWERPLSGLAWAVAMINRQEIGGPRSYTIAVASLGKGVACNPACFITQLLPVKRKLGFYEWTSRLKSHVNPTGTVLLQLENTMQMSLKDLL | + (+ = 0.5 to 1.5 relative activity over WT GLA (SEQ ID NO: 5)) | ++ (++ = >1.5 to 2.5 relative activity over WT GLA (SEQ ID NO: 5)) | +++ (+++ = >2.5 relative activity over WT GLA (SEQ ID NO: 5)) |
